Where no end group is shown, it is not given here.
Molecular target: HRP-conjugated protein-A (UniProt P38507 37-477, HRP conjugate)
Test: ELISA: HRP-protein A added to immobilized biotinylated CRF in the absence of CRFBP-Fc
Text: Biotinylated CRF was immobilized on an avidin-coated ELISA plate. […] OD=optical density.

B1: Biotinylated CRF (corticotropin-releasing factor) (peptide, UniProt P06850 154-194, looked up)
peptide: SEEPPISLDLTFHLLREVLEMARAEQLAQQAHSNRKLMEII
modifications: ends and bridges not checked; also: biotinylated, site not given here
notes: Immobilized on an avidin-coated ELISA plate; also called corticotropin-releasing hormone; CRH
- binding result: no binding

Source: patent US20190382462A1 (published 2019)
